Assay results reported in patent publication US20030215458A1 (published 2003).

What was measured:
[1] = molecular target: T1, mouse B6 class I antigens (D^b or K^b molecules on the surface of RMA-S cells) (mouse, UniProt P01887 21-119); experiment: RMA-S cells incubated with peptide (25 ug/ml), stained with FITC anti-D^b or anti-K^b, flow cytometry
[2] = molecular target: T1, mouse B6 class I antigens (D^b or K^b …); experiment: binding of 9-mer peptides within p117-139 to mouse B6 (H-2^b) class I; RMA-S cell assay, flow cytometry

T1 sequence (P01887 21-119): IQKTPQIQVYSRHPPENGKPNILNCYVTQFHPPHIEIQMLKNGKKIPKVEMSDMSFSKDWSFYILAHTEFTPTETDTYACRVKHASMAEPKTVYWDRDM

Binder: CMTWNQMNL [WT1 peptide p235-243 (CMTWNQMNL)]
- Binding Affinity to Mouse MHC Class I (% increase of D^b or K^b on RMA-S cells) [1]: 33.6%

Binder: SCLESQPAI (also called human p136-144) [WT1 peptide p136-144 human (SCLESQPAI)]
- Binding Affinity to Mouse MHC Class I (% increase of D^b or K^b on RMA-S cells) [1]: 52%

Binder: ALLPAVPSL (also called human p10-18) [WT1 peptide p10-18 human (ALLPAVPSL)]
- Binding Affinity to Mouse MHC Class I (% increase of D^b or K^b on RMA-S cells) [1]: 2.2%

Binder: NLYQMTSQL [WT1 peptide p225-233 (NLYQMTSQL)]
- Binding Affinity to Mouse MHC Class I (% increase of D^b or K^b on RMA-S cells) [1]: 5.8%

Binder: GCNKRYFKL [WT1 peptide p329-337 (GCNKRYFKL)]
- Binding Affinity to Mouse MHC Class I (% increase of D^b or K^b on RMA-S cells) [1]: 1.2%

Binder: YSSDNLYQM [WT1 peptide p221-229 (YSSDNLYQM)]
- Binding Affinity to Mouse MHC Class I (% increase of D^b or K^b on RMA-S cells) [1]: 0.8%

Binder: QMTSQLECM [WT1 peptide p228-236 (QMTSQLECM)]
- Binding Affinity to Mouse MHC Class I (% increase of D^b or K^b on RMA-S cells) [1]: 1.2%

Binder: NQMNLGATL [WT1 peptide p239-247 (NQMNLGATL)]
- Binding Affinity to Mouse MHC Class I (% increase of D^b or K^b on RMA-S cells) [1]: 1%

Binder: PSQASSGQA [WT1 peptide P117-125 (PSQASSGQA)]
- Binding Affinity to Mouse MHC Class I (%) [2]: 2%

Binder: SQASSGQAR [WT1 peptide P118-126 (SQASSGQAR)]
- Binding Affinity to Mouse MHC Class I (%) [2]: 2%

Binder: QASSGQARM [WT1 peptide P119-127 (QASSGQARM)]
- Binding Affinity to Mouse MHC Class I (%) [2]: 2%

Binder: ASSGQARMF [WT1 peptide P120-128 (ASSGQARMF)]
- Binding Affinity to Mouse MHC Class I (%) [2]: 1%

Binder: SSGQARMFP [WT1 peptide P121-129 (SSGQARMFP)]
- Binding Affinity to Mouse MHC Class I (%) [2]: 1%

Binder: QARMFPNA [WT1 peptide P124-132 (printed QARMFPNA)]
- Binding Affinity to Mouse MHC Class I (%) [2]: 1%

Binder: ARMFPNAPY [WT1 peptide P125-133 (ARMFPNAPY)]
- Binding Affinity to Mouse MHC Class I (%) [2]: 1%

Binder: MFPNAPYLP [WT1 peptide P127-135 (MFPNAPYLP)]
- Binding Affinity to Mouse MHC Class I (%) [2]: 2%

Binder: FPNAPYLPS [WT1 peptide P128-136 (FPNAPYLPS)]
- Binding Affinity to Mouse MHC Class I (%) [2]: 1%

Binder: PNAPYLPSC [WT1 peptide P129-137 (PNAPYLPSC)]
- Binding Affinity to Mouse MHC Class I (%) [2]: 1%

Binder: NAPYLPSCL [WT1 peptide P130-138 (NAPYLPSCL)]
- Binding Affinity to Mouse MHC Class I (%) [2]: 79%

Binder: APYLPSCLE [WT1 peptide P131-139 (APYLPSCLE)]
- Binding Affinity to Mouse MHC Class I (%) [2]: 1%
